From publication doi:10.1101/2022.09.22.509047, “Deciphering bacteriophage T5 host recognition mechanism and infection trigger” (bioRxiv, 2022)

Target: T1, E. coli iron ferrichrome transporter FhuA (E. coli, UniProt P06971 34-747)
T1 construct: FhuA, outer-membrane iron-ferrichrome transporter of E. coli; His-tag inserted in extracellular loop L5 after residue 405 (9 residues, not counted in the numbering); residues 1-17 disordered in the map; Lipopolysaccharide copurifies with FhuA; Purification is as in Flayhan et al, 2012; source: E. coli AW740, plasmid-encoded, grown with 100 µM dipyridine, purified; not shown: His6, internal (after …)
T1 sequence (looked up): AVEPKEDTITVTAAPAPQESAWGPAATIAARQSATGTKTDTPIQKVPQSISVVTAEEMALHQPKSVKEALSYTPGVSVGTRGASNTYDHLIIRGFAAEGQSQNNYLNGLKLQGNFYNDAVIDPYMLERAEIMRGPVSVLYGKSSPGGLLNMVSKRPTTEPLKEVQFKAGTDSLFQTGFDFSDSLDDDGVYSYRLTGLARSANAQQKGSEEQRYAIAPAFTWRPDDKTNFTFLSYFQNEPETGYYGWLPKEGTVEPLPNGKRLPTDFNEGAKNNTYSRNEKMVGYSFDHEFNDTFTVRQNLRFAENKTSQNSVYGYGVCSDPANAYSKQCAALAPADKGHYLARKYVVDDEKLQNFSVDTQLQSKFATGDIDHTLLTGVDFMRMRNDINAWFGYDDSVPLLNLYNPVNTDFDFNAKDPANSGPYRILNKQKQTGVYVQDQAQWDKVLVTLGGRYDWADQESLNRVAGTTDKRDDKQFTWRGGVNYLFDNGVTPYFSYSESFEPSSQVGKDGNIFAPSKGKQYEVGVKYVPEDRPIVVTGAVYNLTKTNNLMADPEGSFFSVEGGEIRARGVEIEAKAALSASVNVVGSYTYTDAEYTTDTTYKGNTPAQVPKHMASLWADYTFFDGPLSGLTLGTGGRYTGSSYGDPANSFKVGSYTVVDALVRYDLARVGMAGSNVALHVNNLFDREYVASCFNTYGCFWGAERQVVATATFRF
Experiment: cryo-EM structure; FhuA-RBPpb5 complex formed from equimolar amounts of the two purified proteins; 20 mM Tris, 1.6% C10DAO, 4.3 mg/mL; 2.6 Å average resolution
Conditions: both partners purified

B1: bacteriophage T5 Receptor Binding Protein pb5 (natural protein)
chain: MSFFAGKLNNKSILSLRRGSGGDTNQHINPDSQTIFHSDMSHVIITETHSTGLRLDQGAGDYYWSEMPSRVTQLHNNDPNRVVLTEIEFSDGSRHMLSGMSMGVGAKAYGIINPQIMSQGGLKTQITASADLSLDVGYFNTGTSGTIPQKLRDGTGCQHMFGAFSGRRGFASSAMYLGGAALYKSAWSGSGYVVADAGTLTIPSDYVRHPGARNFGFNAIYVRGRSCNRVLYGMEGPNYTTGGAVQGASSSGALNFTYNPSNPESPKYSVGFARADPTNYAYWESMGDPNDSANGPIGIYSEHLGIYPSKITWYVTNLVYNGSGYNIDGGLFNGNDIKLSPREFIIKGVNVNNTSWKFINFIEKNFNVGNRADFRDVGCNLSKDSPSTGISGIATFGLPTTESNNAPSIKGGNVGGLHANVVSIYNFLPSASWYVSSNPPKIGNNYGDVWSENLLPLRLLGGSGSTILSGNIVFQGNGSVHVGTVGLDLNSSRNGAIVCTMEFIDDTWLSAGGIGCFNPTEMLSQGAEYGDSRFRIGGNTINKKLHQILSLPAGEYVPFFTIKGTVVNACKLQAAAYNPTPYWVSGLPGSVGQTGYYTLTYYMRNDGNNNISIWLDSSMSNIIGMKACLPNIKLIIQRLT
notes: 640 residues; residues 1-37, 333-352, 365-371 and 427-455 not traced in the map; In the functional rows pb5 stands on the phage T5 tail tip (T5st0), untagged; also called RBPpb5; source: E. coli BL21(DE3), pET-28 vector, 20 °C without induction, purified; not shown: His tag, C-terminal, kept
- binding result: binds
